Measurements as given in US20140255415A1 (Novartis, published 2014).

Key:
[1] = target: human LINGO-1 expressed on CHO-K1 cells (CHO-K1-hLINGO-1) (human) (UniProt Q96FE5); experiment: apparent KD, FACS saturation binding on CHO-K1-hLINGO-1 cells, IgG4, without 50% human cerebro-spinal fluid (control)
[2] = target: human LINGO-1 expressed on CHO-K1 cells (CHO-K1-hLINGO-1) (human) (UniProt Q96FE5); experiment: apparent KD, FACS saturation binding on CHO-K1-hLINGO-1 cells, IgG4 format
[3] = target: human LINGO-1 expressed on CHO-K1 cells (CHO-K1-hLINGO-1) (human) (UniProt Q96FE5); experiment: apparent KD, FACS saturation binding on CHO-K1-hLINGO-1 cells, IgG4 pre-incubated in FACS buffer + 2.6% BSA
[4] = target: human LINGO-1 expressed on CHO-K1 cells (CHO-K1-hLINGO-1) (human) (UniProt Q96FE5); experiment: apparent KD, FACS saturation binding on CHO-K1-hLINGO-1 cells, IgG4 pre-incubated in FACS buffer
[5] = target: T1, cynomolgus monkey LINGO-1 expressed on CHO-K1 cells (CHO-K1-cmLINGO-1) (cynomolgus monkey, UniProt Q9N008 34-614); experiment: apparent KD, FACS saturation binding on CHO-K1-cmLINGO-1 cells, IgG4 format
T1 construct: range 34-614; also called Cynomolgus LINGO-1; not shown: 2 amino acid residue linker
T1 sequence (looked up): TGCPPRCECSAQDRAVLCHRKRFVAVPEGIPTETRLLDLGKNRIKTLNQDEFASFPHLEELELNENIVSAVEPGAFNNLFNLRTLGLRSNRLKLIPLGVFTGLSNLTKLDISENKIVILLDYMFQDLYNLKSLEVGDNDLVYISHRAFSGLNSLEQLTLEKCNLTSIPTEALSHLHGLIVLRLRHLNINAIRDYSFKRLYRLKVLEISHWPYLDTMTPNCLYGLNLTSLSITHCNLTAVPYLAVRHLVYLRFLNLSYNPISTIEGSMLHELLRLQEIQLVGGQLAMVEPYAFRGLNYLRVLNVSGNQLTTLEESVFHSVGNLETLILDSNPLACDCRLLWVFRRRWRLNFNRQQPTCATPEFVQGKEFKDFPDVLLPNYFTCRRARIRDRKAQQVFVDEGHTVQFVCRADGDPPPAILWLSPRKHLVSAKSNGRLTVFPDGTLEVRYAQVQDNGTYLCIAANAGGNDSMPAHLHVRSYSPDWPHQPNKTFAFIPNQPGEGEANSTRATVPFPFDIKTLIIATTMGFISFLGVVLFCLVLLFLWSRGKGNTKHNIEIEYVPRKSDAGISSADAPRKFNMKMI
Protocol: (§1) Cell based affinity of anti-LINGO-1 specific antibodies is determined by FACS saturation binding experiments. The determination of the apparent KD values is carried out identical to the procedure described above using anti-LINGO-1 Fab antibodies.
(§2) In detail, CHO-K1-hLINGO-1, CHO-K1-cmLINGO-1 or CHO-K1-rLINGO-1 are detached from culture flasks by versene, washed with FACS buffer and resuspended in FACS buffer. Purified anti-LINGO-1 IgG4s are serially diluted in FACS buffer and spread into round bottom 96-well microtiter plates (NUNC™, Wiesbaden, Germany). For each concentration, duplicate wells are incubated with 1.25×10⁴ cells for 30-60 min on ice in a total volume of 100 μl. […] Using this assay the following apparent KD values can be determined (Table 3).

[6] = target: human LINGO-1 expressed on CHO-K1 cells (CHO-K1-hLINGO-1) (human) (UniProt Q96FE5); experiment: apparent KD, FACS saturation binding on CHO-K1-hLINGO-1 cells, IgG4, with 50% human cerebro-spinal fluid
[7] = target: human LINGO-1 expressed on CHO-K1 cells (CHO-K1-hLINGO-1) (human) (UniProt Q96FE5); experiment: apparent KD, FACS saturation binding on CHO-K1-hLINGO-1 cells, IgG4 pre-incubated in FACS buffer + 50% human serum
[8] = target: T2, rat LINGO-1 expressed on CHO-K1 cells (CHO-K1-rLINGO-1) (rat, UniProt A0A8I5ZPI2 34-614); experiment: apparent KD, FACS saturation binding on CHO-K1-rLINGO-1 cells, IgG4 format
T2 construct: range 34-614; not shown: 2 amino acid residue linker
T2 sequence: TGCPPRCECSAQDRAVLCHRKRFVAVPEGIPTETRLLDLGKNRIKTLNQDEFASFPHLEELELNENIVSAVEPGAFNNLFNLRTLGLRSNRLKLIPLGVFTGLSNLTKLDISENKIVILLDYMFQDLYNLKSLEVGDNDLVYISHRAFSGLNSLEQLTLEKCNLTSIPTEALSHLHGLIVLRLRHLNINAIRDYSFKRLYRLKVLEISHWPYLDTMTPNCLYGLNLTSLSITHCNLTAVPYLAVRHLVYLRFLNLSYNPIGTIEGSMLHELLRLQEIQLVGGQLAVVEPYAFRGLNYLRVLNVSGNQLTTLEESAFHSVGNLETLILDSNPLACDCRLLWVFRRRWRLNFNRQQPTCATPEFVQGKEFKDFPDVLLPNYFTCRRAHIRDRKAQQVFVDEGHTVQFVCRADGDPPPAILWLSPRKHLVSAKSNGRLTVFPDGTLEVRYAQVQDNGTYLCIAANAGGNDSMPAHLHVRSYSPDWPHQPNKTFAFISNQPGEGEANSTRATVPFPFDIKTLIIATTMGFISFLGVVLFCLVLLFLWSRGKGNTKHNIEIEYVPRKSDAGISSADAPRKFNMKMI
Protocol: as §1, §2

[9] = target: human LINGO-1 expressed on CHO-K1 cells (CHO-K1-hLINGO-1) (human) (UniProt Q96FE5); experiment: ratio of apparent KDs, FACS saturation binding on CHO-K1-hLINGO-1 cells, IgG4, without against with 50% human CSF
[10] = target: T3, human LINGO-2 expressed on CHO-K1 cells (CHO-K1-hLINGO-2) (human, UniProt Q7L985 26-606); experiment: apparent KD, FACS saturation binding on CHO-K1-hLINGO-2 cells, IgG4 format
T3 construct: range 26-606; not shown: 2 amino acid residue linker
T3 sequence (looked up): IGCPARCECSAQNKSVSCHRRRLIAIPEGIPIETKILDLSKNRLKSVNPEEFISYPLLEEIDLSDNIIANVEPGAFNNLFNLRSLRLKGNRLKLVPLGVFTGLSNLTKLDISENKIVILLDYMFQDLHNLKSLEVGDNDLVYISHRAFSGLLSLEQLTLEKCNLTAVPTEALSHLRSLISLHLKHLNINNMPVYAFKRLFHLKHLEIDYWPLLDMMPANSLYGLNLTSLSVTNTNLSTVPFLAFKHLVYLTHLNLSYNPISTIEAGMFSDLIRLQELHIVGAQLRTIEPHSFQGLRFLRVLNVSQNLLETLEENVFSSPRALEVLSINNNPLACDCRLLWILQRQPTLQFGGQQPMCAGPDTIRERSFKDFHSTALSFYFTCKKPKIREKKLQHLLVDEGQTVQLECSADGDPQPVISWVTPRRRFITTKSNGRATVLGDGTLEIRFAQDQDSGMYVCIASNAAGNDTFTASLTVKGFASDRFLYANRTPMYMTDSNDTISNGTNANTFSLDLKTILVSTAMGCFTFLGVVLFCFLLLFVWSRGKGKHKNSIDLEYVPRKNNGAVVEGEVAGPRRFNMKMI

Kd [1]: 0.19 nM | Kd [2]: 0.07 nM | Kd [3]: 0.05 nM | Kd [4]: 0.08 nM | Kd [5]: 0.18 nM | Kd [6]: 0.25 nM | Kd [7]: 0.06 nM | Kd [8]: 0.07 nM | App. KD ratio w/o CSF:w/ CSF [9]: 0.76 | Kd [10]: 0.95 nM
B1: anti-LINGO-1 IgG4 antibody 4785 (antibody, V domains shown)
VH: QVQLQQSGPGLVKPSQTLSLTCAISGDSVSDNSAAWSWIRQSPGRGLEWLGLIYLRSKWDNDYAVSVKSRITINPDTSKNQFSLQLNSVTPEDTAVYYCARTGRADEFDVWGQGTLVTVSS
VL: DIVLTQPPSVSGAPGQRVTISCSGSSSNIGNNYVSWYQQLPGTAPKLLISRNSKRPSGVPDRFSGSKSGTSASLAITGLQSEDEADYYCSTYDTFSIVFGGGTKLTVLG
